Assay results published in the supplement of paper PMC10567573.

B1: ATL3 (parent)
chain: QELEEEIKELYENFCKHNGSKNVF
B2: PTPRD (parent)
chain: ITWFKDFLPVDTSNNNGRIKQLRS

Variants of: B1
Assay: protein stability index of a GFP-peptide fusion (GPS, HEK-293T) (PSI 1-6); higher = more stable
Conditions: c terminus: a fixed tail appended
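Further: lentivirally expressed fusions sorted by FACS into six bins by GFP to DsRed ratio, PSI derived from sequencing read proportions per bin multiplied by bin number.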

Row | Variant | protein stability index
1 | QELEEEIKELYENFCKHRGSKNVF [N18R] | 2.86
2 | QELQEEIKELYENFCKHNGSKNVF [E4Q] | 1.56
3 | QELEEEIKELYENFCKVNGSKNVF [H17V] | 2.72
4 | QELEEEIKELYENFCKHNPSKNVF [G19P] | 3.03
5 | QESEEEIKELYENFCKHNGSKNVF [L3S] | 4.62
6 | QELEEEIKELYENFCHHNGSKNVF [K16H] | 2.74
7 | QELEEEIKELYVNFCKHNGSKNVF [E12V] | 2.42
8 | QELEEEIKELYENFCKHNGSKCVF [N22C] | 2.34
9 | PELEEEIKELYENFCKHNGSKNVF [Q1P] | 2.83
10 | QELEEEIKELYCNFCKHNGSKNVF [E12C] | 2.35
11 | QELEEEIKELYEDFCKHNGSKNVF [N13D] | 3.15
12 | QELEEEIKELYENFCKLNGSKNVF [H17L] | 2.99
13 | QELEEEIKELYENFCKHNGRKNVF [S20R] | 3.77
14 | QELEEEIKELEENFCKHNGSKNVF [Y11E] | 4.54
15 | QHLEEEIKELYENFCKHNGSKNVF [E2H] | 2.62
16 | QELEEEIKELYENFCKINGSKNVF [H17I] | 2.94
17 | QELEEGIKELYENFCKHNGSKNVF [E6G] | 3.09
18 | QELEEEIKEMYENFCKHNGSKNVF [L10M] | 3.02
19 | QELEEEIKELYENPCKHNGSKNVF [F14P] | 4.37
20 | QELEEEIKELYENFCKHNGSKHVF [N22H] | 2.3
21 | FELEEEIKELYENFCKHNGSKNVF [Q1F] | 2.09
22 | QELEEEIKELYENFCMHNGSKNVF [K16M] | 2.79
23 | QELEEEIKELYENFCKHNKSKNVF [G19K] | 2.4
24 | QELEEEIKELYENFCKHIGSKNVF [N18I] | 2.04
25 | QELEEEIKELYENFCKHWGSKNVF [N18W] | 2.85
26 | QELEEEIKELYFNFCKHNGSKNVF [E12F] | 2.56

Row | Variant | protein stability index
27 | QECEEEIKELYENFCKHNGSKNVF [L3C] | 3.71
28 | QELEEEIKELWENFCKHNGSKNVF [Y11W] | 2.96
29 | QELEEEPKELYENFCKHNGSKNVF [I7P] | 4.5
30 | QELEEEIKELYENFCKHNGSFNVF [K21F] | 1.65
31 | QELEEESKELYENFCKHNGSKNVF [I7S] | 4.09
32 | QELEEEIKELYENFCKHQGSKNVF [N18Q] | 2.68
33 | QELEEEIKEKYENFCKHNGSKNVF [L10K] | 3.92
34 | QELEEEIKELYWNFCKHNGSKNVF [E12W] | 1.98
35 | IELEEEIKELYENFCKHNGSKNVF [Q1I] | 1.42
36 | QELEEWIKELYENFCKHNGSKNVF [E6W] | 1.75
37 | QELKEEIKELYENFCKHNGSKNVF [E4K] | 2.8
38 | QELEEEIKELYENFCKHNGSKNVM [F24M] | 3.06
39 | QWLEEEIKELYENFCKHNGSKNVF [E2W] | 1.9
40 | QELEEEIKELYGNFCKHNGSKNVF [E12G] | 3.27
41 | QELEEEIKELYENFCKHFGSKNVF [N18F] | 2.3
42 | QELEERIKELYENFCKHNGSKNVF [E6R] | 2.77
43 | QELEEEIKELYENFCKHNGSKNVI [F24I] | 2.48
44 | QELEEEIKELYHNFCKHNGSKNVF [E12H] | 2.81
45 | QELEEEIKELYENLCKHNGSKNVF [F14L] | 3.27
46 | QELMEEIKELYENFCKHNGSKNVF [E4M] | 2.14
47 | QELEEEIKELYENFCKHNGSGNVF [K21G] | 2.49
48 | QELEEEIKELFENFCKHNGSKNVF [Y11F] | 2.64
49 | QELEEEIKELYENFCKHNGSSNVF [K21S] | 1.57
50 | QELLEEIKELYENFCKHNGSKNVF [E4L] | 2.47
51 | QELEEEIKELYENFCKHNGEKNVF [S20E] | 2.04
52 | QDLEEEIKELYENFCKHNGSKNVF [E2D] | 3.03

Row | Variant | protein stability index
53 | QELEEEIKELYENFCKHNGSKFVF [N22F] | 2.59
54 | QELEEEIMELYENFCKHNGSKNVF [K8M] | 2.53
55 | QELEEEIYELYENFCKHNGSKNVF [K8Y] | 2.37
56 | QELEEEIKELYENFCKHNGSKNIF [V23I] | 2.62
57 | QELEEEIKELYENFCKHNGSKNVP [F24P] | 2.74
58 | QSLEEEIKELYENFCKHNGSKNVF [E2S] | 2.97
59 | QELEEEVKELYENFCKHNGSKNVF [I7V] | 3.75
60 | QELEEEIKELYENFKKHNGSKNVF [C15K] | 3.49
61 | QELEEEIKELYENFCEHNGSKNVF [K16E] | 3.81
62 | QELEEEIKELYENFMKHNGSKNVF [C15M] | 2.02
63 | QELEEEIKELYENFCKHNGSKKVF [N22K] | 3.17
64 | QELEEEIKELYENFCKHNGSMNVF [K21M] | 1.85
65 | QELEEEIKELYENFCKHNGSKMVF [N22M] | 2.8
66 | QELEEEIKELQENFCKHNGSKNVF [Y11Q] | 4.58
67 | QELEEEIKELLENFCKHNGSKNVF [Y11L] | 3.61
68 | QELEEEIKELYENFWKHNGSKNVF [C15W] | 3.73
69 | QELEEEIKELYENFCKHNGSRNVF [K21R] | 2.12
70 | QELEEEIKELYENFCFHNGSKNVF [K16F] | 3.11
71 | QELEETIKELYENFCKHNGSKNVF [E6T] | 2.86
72 | QMLEEEIKELYENFCKHNGSKNVF [E2M] | 2.54
73 | QELEEEIKCLYENFCKHNGSKNVF [E9C] | 2.69
74 | QELEEEIKELYENFCKHNGSKNVE [F24E] | 2.9
75 | QELEEEIKELYENFCKHNGKKNVF [S20K] | 3.17
76 | QELEEEIKELYENFCKHNGSKNDF [V23D] | 2.16
77 | QELEEEDKELYENFCKHNGSKNVF [I7D] | 4.81

Variants of: B2
Assay: as above
Conditions: c terminus: a fixed tail appended

Row | Variant | protein stability index
78 | ATWFKDFLPVDTSNNNGRIKQLRS [I1A] | 3.26
79 | CTWFKDFLPVDTSNNNGRIKQLRS [I1C] | 1.9
80 | DTWFKDFLPVDTSNNNGRIKQLRS [I1D] | 3.88
81 | ETWFKDFLPVDTSNNNGRIKQLRS [I1E] | 3.66
82 | FTWFKDFLPVDTSNNNGRIKQLRS [I1F] | 2.03
83 | GTWFKDFLPVDTSNNNGRIKQLRS [I1G] | 3.39
84 | HTWFKDFLPVDTSNNNGRIKQLRS [I1H] | 3.47
85 | KTWFKDFLPVDTSNNNGRIKQLRS [I1K] | 2.99
86 | LTWFKDFLPVDTSNNNGRIKQLRS [I1L] | 2.33
87 | MTWFKDFLPVDTSNNNGRIKQLRS [I1M] | 2.62
88 | NTWFKDFLPVDTSNNNGRIKQLRS [I1N] | 3.69
89 | PTWFKDFLPVDTSNNNGRIKQLRS [I1P] | 3.97
90 | QTWFKDFLPVDTSNNNGRIKQLRS [I1Q] | 2.71
91 | RTWFKDFLPVDTSNNNGRIKQLRS [I1R] | 3.03
92 | STWFKDFLPVDTSNNNGRIKQLRS [I1S] | 3.17
93 | TTWFKDFLPVDTSNNNGRIKQLRS [I1T] | 3.02
94 | VTWFKDFLPVDTSNNNGRIKQLRS [I1V] | 2.15
